# Target: FLAG-tagged human Ang2 (human) (UniProt O15123)
# Assay: competition ELISA: FLAG-hAng2 binding to coated hTie2-Fc
# FLAG-tagged human Ang2 (human), sequence (O15123 19-496): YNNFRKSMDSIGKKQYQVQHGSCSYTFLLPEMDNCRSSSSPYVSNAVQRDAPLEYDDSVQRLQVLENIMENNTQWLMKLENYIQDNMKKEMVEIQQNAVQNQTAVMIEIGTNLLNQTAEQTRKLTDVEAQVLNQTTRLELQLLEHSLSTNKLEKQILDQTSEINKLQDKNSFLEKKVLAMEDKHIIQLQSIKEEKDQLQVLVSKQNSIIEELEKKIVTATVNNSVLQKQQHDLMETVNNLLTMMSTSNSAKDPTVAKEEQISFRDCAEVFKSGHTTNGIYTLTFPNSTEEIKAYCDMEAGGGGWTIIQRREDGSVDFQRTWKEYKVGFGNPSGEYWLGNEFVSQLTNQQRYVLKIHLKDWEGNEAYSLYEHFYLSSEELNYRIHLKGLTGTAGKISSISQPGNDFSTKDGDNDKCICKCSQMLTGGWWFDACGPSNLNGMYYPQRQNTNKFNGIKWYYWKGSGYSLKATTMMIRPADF
row,Binder,IC50 [nM]
1,"VHH 00039 (VHH, not shown: small tags and cut ends) VHH: EVQLVESGGGLVQPGGSLRLSCAASGFTFDDYALGWFRQAAGKEREGVSCIRCSDGSTYYADSVKGRFTISRDNSKNTVYLQMNSLRPEDTAVYYCAASIVPRSKLEPYEYDAWGQGTLVTVSS",11.9
2,"VHH 00050 (VHH, not shown: small tags and cut ends) VHH: EVQLVESGGGLVQPGGSLRLSCAASGFTFDDYALGWFRQAPGKEREGVSCIRCSDGSTYYADSVKGRFTISSDNSKNTVYLQMNSLRPEDTAVYYCAASIVPRSKLEPYEYDAWGQGTLVTVSS",6
3,"VHH 00049 (VHH, not shown: small tags and cut ends) VHH: EVQLVESGGGLVQPGGSLRLSCAASGFTFDDYALGWFRQAAGKEREGVSCIRCSDGSTYYADSVKGRFTISSDNSKNTVYLQMNSLRPEDTAVYYCAASIVPRSKLEPYEYDAWGQGTLVTVSS",6.9
4,"VHH 00921 (VHH, not shown: small tags and cut ends) VHH: EVQLVESGGGLVQPGGSLRLSCAASGFTFDDYALGWFRQAPGKEREGVSCIRCSGGSTYYADSVKGRFTISSDNSKNTVYLQMNSLRPEDTAVYYCAASIVPRSKLEPYEYDAWGQGTLVTVSS",30.4
5,"VHH 00051 (VHH, not shown: small tags and cut ends) VHH: EVQLVESGGGLVQPGGSLRLSCAASGFTFDDYALGWFRQAAGKEREGVSCIRCSGGSTYYADSVKGRFTISSDNSKNTVYLQMNSLRPEDTAVYYCAASIVPRSKLEPYEYDAWGQGTLVTVSS",16.1
6,"VHH 00925 (VHH, not shown: small tags and cut ends) VHH: DVQLVESGGGLVQPGGSLRLSCAASGFTFDDYALGWFRQAPGKEREGVSCIRCSGGSTYYADSVKGRFTISSDNSKNTVYLQMNSLRPEDTAVYYCAASIVPRSKLEPYEYDAWGQGTLVTVSS",22.1
7,"VHH 00040 (VHH, not shown: small tags and cut ends) VHH: EVQLVESGGGLVQPGGSLRLSCAASGFTFDDYALGWFRQAPGKEREGVSCIRCSDGSTYYADSVKGRFTISRDNSKNTVYLQMNSLRPEDTAVYYCAASIVPRSKLEPYEYDAWGQGTLVTVSS",6.4
8,"VHH 00903 (VHH, not shown: small tags and cut ends) VHH: EVQLVESGGGLVQPGGSLRLSCAASGFTLDDYAIGWFRQAPGKEREGVSSIRDNGGSTYYADSVKGRFTISSDNSKNTVYLQMNSLRPEDTAVYYCAAVPAGRLRFGEQWYPIYEYDAWGQGTLVTVSS",0.089
9,"VHH 00906 (VHH, not shown: small tags and cut ends) VHH: EVQLVESGGGLVQPGGSLRLSCAASGFTIDDYAIGWFRQAPGKEREGVSSIRDNGGSTYYADSVKGRFTISSDNSKNTVYLQMNSLRPEDTAVYYCAAVPAGRLRYGEQWYPIYEYDAWGQGTLVTVSS",0.045
10,"VHH 00900 (VHH, not shown: small tags and cut ends) VHH: EVQLVESGGGLVQAGGSLRLSCAVSGFTLDDYAIGWFRQAPGKEREGVSSIRDNDGSTYYADSVKGRFTISSDNDKNTVYLQMNSLKPEDTAVYYCAAVPAGRLRFGEQWYPLYEYDAWGQGTLVTVSS",0.2
11,"VHH 00911 (VHH, not shown: small tags and cut ends) VHH: EVQLVESGGGLVQPGGSLRLSCAASGLTLDDYAIGWFRQAPGKEREGVSSIRDNGGSTYYADSVKGRFTISSDNSKNTVYLQMNSLRPEDTAVYYCAAVPAGRLRFGEQWYPIYEYDAWGQGTLVTVSS",0.059
12,"VHH 00899 (VHH, not shown: small tags and cut ends) VHH: EVQLVESGGGLVQAGGSLRLSCAASGFTLDDYAIGWFRQAPGKEREGVSSIRDIDGSTYYADSVKGRFTISSDNDKNTVYLQMNSLKPEDTAVYYCAAVPAGRLRFGEQWYPLYEYDAWGQGTLVTVSS",0.9
13,"VHH 00907 (VHH, not shown: small tags and cut ends) VHH: EVQLVESGGGLVQPGGSLRLSCAASGITLDDYAIGWFRQAPGKEREGVSSIRDNGGSTYYADSVKGRFTISSDNSKNTVYLQMNSLRPEDTAVYYCAAVPAGRLRFGEQWYPIYEYDAWGQGTLVTVSS",0.062
14,"VHH 00913 (VHH, not shown: small tags and cut ends) VHH: EVQLVESGGGLVQPGGSLRLSCAASGLTIDDYAIGWFRQAPGKEREGVSSIRDNGGSTYYADSVKGRFTISSDNSKNTVYLQMNSLRPEDTAVYYCAAVPAGRLRFGEQWYPIYEYDAWGQGTLVTVSS",0.042
15,"VHH 00909 (VHH, not shown: small tags and cut ends) VHH: EVQLVESGGGLVQPGGSLRLSCAASGITIDDYAIGWFRQAPGKEREGVSSIRDNGGSTYYADSVKGRFTISSDNSKNTVYLQMNSLRPEDTAVYYCAAVPAGRLRFGEQWYPIYEYDAWGQGTLVTVSS",0.053
16,"VHH 00902 (VHH, not shown: small tags and cut ends) VHH: EVQLVESGGGLVQAGGSLRLSCAASGFTLDDYAIGWFRQAPGKEREGVSAIRDSGGSTYYADSVKGRFTISSDNDKNTVYLQMNSLKPEDTAVYYCAAVPAGRLRFGEQWYPLYEYDAWGQGTLVTVSS",1.3
17,"VHH 00898 (VHH, not shown: small tags and cut ends) VHH: EVQLVESGGGLVQAGGSLRLSCAASGFTLDDYAIGWFRQAPGKEREGVSAIRDNDGSTYYADSVKGRFTISSDNDKNTVYLQMNSLKPEDTAVYYCAAVPAGRLRFGEQWYPLYEYDAWGQGTLVTVSS",1.2

row,Binder,IC50 [nM]
1,"VHH 00905 (VHH, not shown: small tags and cut ends) VHH: EVQLVESGGGLVQPGGSLRLSCAASGFTIDDYAIGWFRQAPGKEREGVSSIRDNGGSTYYADSVKGRFTISSDNSKNTVYLQMNSLRPEDTAVYYCAAVPAGRLRFGEQWYPIYEYDAWGQGTLVTVSS",0.079
2,"VHH 00904 (VHH, not shown: small tags and cut ends) VHH: EVQLVESGGGLVQPGGSLRLSCAASGFTLDDYAIGWFRQAPGKEREGVSSIRDNGGSTYYADSVKGRFTISSDNSKNTVYLQMNSLRPEDTAVYYCAAVPAGRLRYGEQWYPIYEYDAWGQGTLVTVSS",0.062
3,"VHH 00910 (VHH, not shown: small tags and cut ends) VHH: EVQLVESGGGLVQPGGSLRLSCAASGITIDDYAIGWFRQAPGKEREGVSSIRDNGGSTYYADSVKGRFTISSDNSKNTVYLQMNSLRPEDTAVYYCAAVPAGRLRYGEQWYPIYEYDAWGQGTLVTVSS",0.042
4,"VHH 00914 (VHH, not shown: small tags and cut ends) VHH: EVQLVESGGGLVQPGGSLRLSCAASGLTIDDYAIGWFRQAPGKEREGVSSIRDNGGSTYYADSVKGRFTISSDNSKNTVYLQMNSLRPEDTAVYYCAAVPAGRLRYGEQWYPIYEYDAWGQGTLVTVSS",0.037
5,"VHH 00912 (VHH, not shown: small tags and cut ends) VHH: EVQLVESGGGLVQPGGSLRLSCAASGLTLDDYAIGWFRQAPGKEREGVSSIRDNGGSTYYADSVKGRFTISSDNSKNTVYLQMNSLRPEDTAVYYCAAVPAGRLRYGEQWYPIYEYDAWGQGTLVTVSS",0.062
6,"VHH 00044 (VHH, not shown: small tags and cut ends) VHH: EVQLVESGGGLVQPGGSLRLSCAASGFALDYYAIGWFRQAPGKEREGVSCISSSDGITYYVDSVKGRFTISRDNSKNTVYLQMNSLRPEDTAVYYCATDSGGYIDYDCMGLGYDYWGQGTLVTVSS",0.069
7,"VHH 00928 (VHH, not shown: small tags and cut ends) VHH: EVQLVESGGGLVQPGGSLRLSCAASGFALDYYAIGWFRQAPGKEREGVSCISSSGGITYYADSVKGRFTISRDNSKNTVYLQMNSLRPEDTAVYYCATDSGGYIDYDCSGLGYDYWGQGTLVTVSS",0.22
8,"VHH 00926 (VHH, not shown: small tags and cut ends) VHH: EVQLVESGGGLVQPGGSLRLSCAASGFALDYYAIGWFRQAPGKEREGVSCISSSGGITYYADSVKGRFTISRDNSKNTVYLQMNSLRPEDTAVYYCATDSGGYIDYDCQGLGYDYWGQGTLVTVSS",0.25
9,"VHH 00045 (VHH, not shown: small tags and cut ends) VHH: EVQLVESGGGLVQPGGSLRLSCAASGFALDYYAIGWFRQAPGKEREGVSCISSSDGITYYADSVKGRFTISRDNSKNTVYLQMNSLRPEDTAVYYCATDSGGYIDYDCMGLGYDYWGQGTLVTVSS",0.12
10,"VHH 00929 (VHH, not shown: small tags and cut ends) VHH: EVQLVESGGGLVQPGGSLRLSCAASGFALDYYAIGWFRQAPGKEREGVSCISSSGGITYYADSVKGRFTISRDNSKNTVYLQMNSLRPEDTAVYYCATESGGYIDYDCQGLGYDYWGQGTLVTVSS",0.15
11,"VHH 00046 (VHH, not shown: small tags and cut ends) VHH: EVQLVESGGGLVQPGGSLRLSCAASGFALDYYAIGWFRQAPGKEREGVSCISSSGGITYYVDSVKGRFTISRDNSKNTVYLQMNSLRPEDTAVYYCATDSGGYIDYDCMGLGYDYWGQGTLVTVSS",0.095
12,"VHH 00930 (VHH, not shown: small tags and cut ends) VHH: EVQLVESGGGLVQPGGSLRLSCAASGFALDYYAIGWFRQAPGKEREGVSCISSSGGITYYADSVKGRFTISRDNSKNTVYLQMNSLRPEDTAVYYCATESGGYIDYDCRGLGYDYWGQGTLVTVSS",0.19
13,"VHH 00924 (VHH, not shown: small tags and cut ends) VHH: DVQLVESGGGLVQPGGSLRLSCAASGFALDYYAIGWFRQAPGKEREGVSCISSSGGITYYADSVKGRFTISRDNSKNTVYLQMNSLRPEDTAVYYCATDSGGYIDYDCMGLGYDYWGQGTLVTVSS",0.11
14,"VHH 00920 (VHH, not shown: small tags and cut ends) VHH: EVQLVESGGGLVQPGGSLRLSCAASGFALDYYAIGWFRQAPGKEREGVSCISSSGGITYYADSVKGRFTISRDNSKNTVYLQMNSLRPEDTAVYYCATDSGGYIDYDCMGLGYDYWGQGTLVTVSS",0.13
15,"VHH 00931 (VHH, not shown: small tags and cut ends) VHH: EVQLVESGGGLVQPGGSLRLSCAASGFALDYYAIGWFRQAPGKEREGVSCISSSGGITYYADSVKGRFTISRDNSKNTVYLQMNSLRPEDTAVYYCATESGGYIDYDCSGLGYDYWGQGTLVTVSS",0.17
16,"VHH 00927 (VHH, not shown: small tags and cut ends) VHH: EVQLVESGGGLVQPGGSLRLSCAASGFALDYYAIGWFRQAPGKEREGVSCISSSGGITYYADSVKGRFTISRDNSKNTVYLQMNSLRPEDTAVYYCATDSGGYIDYDCRGLGYDYWGQGTLVTVSS",0.22

# Reference: US20230203146A1
